Laboratory results as given in the supplement of paper PMC12764529.
± gives the half width of the 95% confidence interval.

Assay: folding stability dG unfold from chymotrypsin proteolysis; higher = more stable
Outline: (§1)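 Unfolding free energy was derived, per protease or combined, by relating Bayesian-fitted K50 values from sequencing counts to a sequence-predicted unfolded-state K50 and a shared folded-state K50. The underlying digests exposed cysteine-free mini-proteins under 80 residues, in a PA-tagged cDNA display construct, to trypsin and chymotrypsin at 11 threefold-diluted concentrations and to a no-protease condition. A filter kept only designs with AlphaFold2 dimer inter-PAE above 15.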

Sequence | folding stability dG unfold
SAGGSAGGSAGAKKLPPGQVALRIEPVTVTVTDEDGKERTVTRIRLVDAATGEEYEFTFPSAGGSAGGSAGG [r17_266_TrROS_Hall] | 0.531 ± 0.1 kcal/mol
SAGGSAGGSAGGMTIVLNIPKEELTEEEIKKLKESLPSDNPVKIIVKPKPPRKFYPKSTISAGGSAGGSAGG [r7_979_JUSTAS] | 1.12 ± 0.048 kcal/mol
SAGGSAKYYYIVAEIDLPNKKVRFVKKVKKGDVEKFKAEIKKAFPGKKIKVKVIEFESEEEAKKAASAGGSA [r15_889_TrMRF] | 4.373 ± 0.043 kcal/mol
SAGGSAGGSAPPPPPPVYRIPIEITEIDPNGKITVTLPDLGEEITFPAPNVEVIPGDEFYIPSAGGSAGGSA [r18_89_TrROS] | 1.67 ± 0.045 kcal/mol
SAGGSAGGSAGGSSFTIKVELKDENGNKYTITVTGTGSAETVKKELEKKYPNKIVKITGSAGGSAGGSAGGS [r4_412_TrMRF] | 2.897 ± 0.025 kcal/mol
SAGGGSVSITLELEEEEEIEEIVNEKGIPEPLEKRIKKKVTITISPPPTLSSSSSVTGLAEKAIEEKSAGGS [r16_359_JUSTAS] | 0.511 ± 0.069 kcal/mol
SAGGSAGGSAMQRDPDGKPQPQVTFRIPADDMPEEQIKKHLPPEFADNFRDNMPEGDTITLSAGGSAGGSAG [r3_326_TrROS] | -0.105 ± 0.25 kcal/mol
SAGGMTTTTVEVKRLPNGSIERTLKTTVPLPNGDLVVTTTKSIVYREDGKVVKEEVLETETTLLPATSAGGS [r8_36_JUSTAS] | 2.92 ± 0.077 kcal/mol
SAGGMTKEKALELAEEIAREFAKKHGIEKLELKVEDVVEKEDEVIVRLKIVYPDKVYELDLVVPKDYVSAGG [r13_611_TrMRF] | 4.06 ± 0.13 kcal/mol
SAGGSAGGSAGHIPIIFQFEFEHYDPDDGKPKEHRWVIVIEFDGNGIKNIRIIPKEDAKKLLSAGGSAGGSA [r18_406_TrROS] | 2.28 ± 0.047 kcal/mol
SAGGSAGGSAGSMFMIMIEYDPPGYIKVSINRYKMGPDGDFEPVEPETHEIPIPPGQPFFSAGGSAGGSAGG [r11_440_TrROS] | 2.36 ± 0.13 kcal/mol
SAGGSPISLEVSTSTLPDGTLRVTTTATSPDSSRSYTVTLDFPPSQPEEIPARAAAEAAAIAADPAVASAGG [r13_968_JUSTAS] | 1.35 ± 0.058 kcal/mol
SAGGKKKKIKPKEIKVRIIIEKDGKKIEIELSEEELEKIKKAPTLEEIIKELEKKGFKIVKIEIEKKSAGGS [r16_567_TrROS_Hall] | 3.05 ± 0.059 kcal/mol
SAGGSAGGSAGYIKTEHEVTVMEKDPDGGTKMIEVPVKITIPIIPIPPEALEKNPEALKKFLSAGGSAGGSA [r18_114_TrROS] | 0.352 ± 0.14 kcal/mol
SAGGSAGGSAGGSGSSVLVKTTTTLSVAPGATITLPDGTVYTVPAGVPVTVTTWVLVETSAGGSAGGSAGGS [r4_232_JUSTAS] | 4.05 ± 0.092 kcal/mol
SKTFYAGLDVYFDPDSDELTALVGVRSEDGSYEPSLEEVAREVAAKLRELGYEVEVEPLPGYARIRVKPPSA [r9_510_TrMRF] | 1.72 ± 0.069 kcal/mol
SLRDIAKEIAEKAGMDPEDVEINVETEPDPKNGKPRLRITVSIEHPNRKYMIKIDFQDGEIEEIMPLEDISA [r9_1219_TrROS] | 1.97 ± 0.089 kcal/mol
SAGNFKIDINPENNMIMIKSPNGWFMFPFTYTRTQPEPDPDDPNEWKQRPRTETHYIMMPANDLKDLLNSAG [r5_234_TrROS] | 0.502 ± 0.24 kcal/mol
SAGGSAGGSAGKIYIVKLPNETIEIEFEGTEEEAIDFAIKELEKLFPKPIPKDDIIILGGSAGGSAGGSAGG [r11_1028_TrMRF] | 1.65 ± 0.043 kcal/mol
SPTVTETTLIASEEDPSSGVKTELTETTTIVKVGGTTTEVTTTTTTLTPEEDGKGTSTVTPSTTTTPIPASA [r9_375_JUSTAS] | 1.45 ± 0.12 kcal/mol
SAGGMIAPDEKVLVKVTLSEGTTSRELEFEFEVPPGATEEELKQRVIDEIPEEPRKNWKVEVEIKPVSAGGS [r16_321_JUSTAS] | 0.198 ± 0.24 kcal/mol

Assay: folding stability dG unfold (combined trypsin and chymotrypsin); higher = more stable
Outline: as §1

Sequence | folding stability dG unfold
SAGGNNAWVQITIPITIKPVYEPEYDPDNGKPKWEPREMEIPITIWAPFDDPEDAERAADDILKSLGISAGG [r13_35_TrROS] | 0.756 ± 0.1 kcal/mol
SAGKVEIKEVSVDPNTDEVKVTFKNPNVPPGTKIVVYPKDGKPIEFETEPNKEVTLTLPKDVEKIEFEGSAG [r14_671_TrMRF] | 0.0919 ± 0.15 kcal/mol
SAGGSAGGSAGGNWVTIWIPFKMTHYRPDPDGKMYPHKHEMPRPITIPPGQATEDALDKISAGGSAGGSAGG [r7_777_TrROS] | 0.595 ± 0.11 kcal/mol
SAGGSAGGSAGGSVTYEADEVEIKEFTDPSTGKKYVTVTFPGPGGPVTTTLPADLIEELSAGGSAGGSAGGS [r10_447_JUSTAS] | 1.33 ± 0.093 kcal/mol
SAGGSAGGSAGGMSITISVPEKTATIEIPGLGKTITIPPGETITVPIPNVPPFKITTEPPSAGGSAGGSAGG [r11_939_JUSTAS] | 0.732 ± 0.086 kcal/mol
SAGGSAGGSAGNSVTILPIPETDKYLVVVSDNSGKFTVFDVDSSDLEDVVKALPSNYTVTSAGGSAGGSAGG [r11_569_TrMRF] | 1.04 ± 0.048 kcal/mol
SAARVTVTYDPATNTVTVTVEVEVDGVTVTVTATVTFVDGRLVLTVTVEVRPPPPPPSAEQLAALRAAASAG [r14_930_TrROS_Hall] | 2.74 ± 0.33 kcal/mol
SAGGSAPPVKVDVEELDDDLVKVTVTFPGGPFTLKLYKDGKLLKEETVPEDETATFVLPKDALIVGSAGGSA [r15_581_TrMRF] | 1.36 ± 0.059 kcal/mol
SAGGMPPGSFRVRARRPVPLFVRVRLPNDPDVTVTFPVTVPAELELPVNSPEALEALREAGFEIEPASAGGS [r8_482_TrMRF] | 0.357 ± 0.18 kcal/mol
SAGGSAGGSAAKVISVNPETGEVVVEYPDGSVGYFKVKGGVVEEVRSSPVLPVPEDDPLFTSAGGSAGGSAG [r3_406_TrMRF] | 1.15 ± 0.077 kcal/mol
